Data as given in patent US20230265185A1 (NATIONAL RESEARCH COUNCIL OF CANADA, published 2023).

What was measured:
[1] = molecular target: T1, hCD22 fragment Bin 4, IVR4 (aa303-405), displayed on yeast cells (human, UniProt P20273 322-424); test: yeast display cell ELISA, native cells
T1 construct: Range is counted on the mature ECD, not on the UniProt entry; on P20273 it would be 322-424 (my arithmetic); also called CD22 Sub-Domain 4; not shown: Aga2-HA display fusion partner of vector pPNL6; MYC tag
T1 sequence (looked up): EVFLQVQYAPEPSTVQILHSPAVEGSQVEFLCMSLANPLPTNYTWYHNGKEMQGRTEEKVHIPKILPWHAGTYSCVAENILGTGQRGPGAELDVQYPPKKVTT
Description: (§1) The YSD vector (pPNL6) was from The Pacific Northwest National Laboratory, USA. […] The HRP activity was assayed with substrate TMB (tetramethyl benzidine) according to the manufacture’s conditions and read at OD₄₅₀.
(§2) Table 7 depicts the assessment of the nature of the epitopes of CD22 sdAbs to determine if the epitopes for the sdAbs are continuous (linear) or non-continuous (conformational). […] The binding of each sdAb to native and denatured CD22 fragments was measured as OD₄₅₀, and the ratio of the binding to denatured CD22 to non-denatured CD22 was calculated, with the ratio ≥ 0.5 indicative linear (L), and the ratio < 0.5 indicative of conformational (C) epitopes.

[2] = molecular target: T2, hCD22 fragment Bin 1, IVR1 (aa1-135), displayed on yeast cells (human, UniProt P20273 20-154); test: yeast display cell ELISA, native cells
T2 construct: range 1-135; Range is counted on the mature ECD, not on the UniProt entry; on P20273 it would be 20-154 (my arithmetic); also called CD22 Sub-Domain 1; not shown: Aga2-HA display fusion partner of vector pPNL6; MYC tag
T2 sequence (looked up): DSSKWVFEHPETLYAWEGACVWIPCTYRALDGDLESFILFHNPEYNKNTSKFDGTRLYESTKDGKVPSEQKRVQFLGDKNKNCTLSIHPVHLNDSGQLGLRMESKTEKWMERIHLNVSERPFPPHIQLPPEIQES
Description: as §1, §2

[3] = molecular target: T3, full-length hCD22-ECD (668aa) displayed on yeast cells (human, UniProt P20273 20-687); test: yeast display cell ELISA, OD on denatured over non-denatured CD22 ECD
T3 construct: extracellular domain; Yeast surface display fusion Aga2-HA-(insert)-MYC; also called Bin 8; CD22-ECD Full lenght; not shown: Aga2-HA display fusion partner of vector pPNL6; MYC tag
T3 sequence (looked up): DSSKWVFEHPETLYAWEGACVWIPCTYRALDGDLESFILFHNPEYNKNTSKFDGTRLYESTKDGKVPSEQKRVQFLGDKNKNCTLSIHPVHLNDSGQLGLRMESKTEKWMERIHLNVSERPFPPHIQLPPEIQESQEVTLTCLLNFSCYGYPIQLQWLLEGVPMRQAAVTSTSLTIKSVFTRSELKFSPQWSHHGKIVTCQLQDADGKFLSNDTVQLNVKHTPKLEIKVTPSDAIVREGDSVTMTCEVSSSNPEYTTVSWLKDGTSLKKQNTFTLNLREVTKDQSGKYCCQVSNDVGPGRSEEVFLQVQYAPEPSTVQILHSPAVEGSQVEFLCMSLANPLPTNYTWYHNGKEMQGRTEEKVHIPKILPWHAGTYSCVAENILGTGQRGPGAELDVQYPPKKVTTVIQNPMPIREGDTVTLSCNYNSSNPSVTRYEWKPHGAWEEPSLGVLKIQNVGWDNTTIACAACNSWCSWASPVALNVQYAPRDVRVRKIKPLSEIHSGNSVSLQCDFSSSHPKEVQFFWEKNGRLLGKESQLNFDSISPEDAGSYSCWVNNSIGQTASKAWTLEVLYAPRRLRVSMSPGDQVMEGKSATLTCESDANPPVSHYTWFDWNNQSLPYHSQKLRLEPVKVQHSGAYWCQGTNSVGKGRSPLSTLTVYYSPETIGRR
Description: as §1, §2

[4] = molecular target: T3, full-length hCD22-ECD (668aa) displayed …; test: yeast display cell ELISA, native cells
Description: as §1, §2

B1: hCD221ug-13 (VHH)
VHH: QVQLVESGGGLVQAGDSLRLSCAGSGGSFSSVTMAWFRQAPGKDREFVAAITWSSPSTYYADSVKGRFTISRDNAKNTVYLQMNSLKPEDTAVYYCAGGRTGRGTSADTDEYNYWGQGTQVTVSS
modifications: single biotin at the VHH C-terminal (biotinylation signal sequence)
notes: llama VHH, expressed in E. coli TG1, IMAC purified, monomeric SEC fraction; also called VHH # 21; 1-hCD22 1ug-13
- Non denatured CD22 OD [1]: 1.23 OD450

B2: hCD221ug-80 (VHH)
VHH: QVQLVESGGGLVQPGGSLRLSCTFSGFTLDYYVMVWFRQAPGKEREAVSCITSDGVTYYADSVKGRFTISRDNAKNTVYLQMNRVKPEDTAVYYCAVDKPFYDGGIQYTCPVDFDSWGQGAQVTVSS
modifications: single biotin at the VHH C-terminal (biotinylation signal sequence)
notes: llama VHH, expressed in E. coli TG1, IMAC purified, monomeric SEC fraction; also called VHH # 1; 2-hCD22 1ug-80
- Non denatured CD22 OD [2]: 2.32 OD450

B3: hCD22pas-32 (VHH)
VHH: QVQLVESGGGLVQAGGSLRLSCAVSGRIFRSYVLGWFRQAPGKERELVARIGWSDTYYADSVKGRFTISRDNAKNTVDLQMNSLKPEDTAVYYCAANSPPYGPQRDEFGYWGQGTQVTVSS
modifications: single biotin at the VHH C-terminal (biotinylation signal sequence)
notes: llama VHH, expressed in E. coli TG1, IMAC purified, monomeric SEC fraction; also called VHH # 15; 6-hCD22 pas-32
- CD22 Ratio (D/ND) [3]: 0
- Non denatured CD22 OD [4]: 0.789 OD450
